A word on the koff: it is the rate constant with which the complex falls apart. High values mean a short-lived complex, low ones a long-lived complex. In general, Kd refers to a measure of binding affinity in units of concentration.

The values that follow come from US20210363269A1 (ALX ONCOLOGY, published 2021).

The target of assay [1] is T1, high affinity SIRP-α D1 variant CV1-3.
T1 chain: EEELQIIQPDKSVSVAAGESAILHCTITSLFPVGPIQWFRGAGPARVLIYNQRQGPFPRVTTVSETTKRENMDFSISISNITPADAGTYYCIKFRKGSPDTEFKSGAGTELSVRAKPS
The assay can be described thus: SPR, Langmuir fit. In outline:
(§1)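 Antibody clones in scFv-Fc format were captured from pre-filtered culture media onto anti-human IgG Fc, amine-coupled (about 4000 RU) on a GLC chip of a ProteOn XPR36 instrument. SIRP analytes were flowed in PBS pH 7.4 with 0.01% Tween-20 at 25° C. Data were double-referenced against interspot and buffer-blank responses. Dissociation rate constants (koff) were derived by fitting a 1:1 Langmuir model.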
Background: Surface plasmon resonance follows binding to a sensor surface in real time, without labels.

The next assay deals with T2, human SIRPγ isoform 1 (human, UniProt Q9P1W8 29-147).
T2 construct: also called SIRPg; sirpg
T2 sequence (Q9P1W8 29-147 limits assumed): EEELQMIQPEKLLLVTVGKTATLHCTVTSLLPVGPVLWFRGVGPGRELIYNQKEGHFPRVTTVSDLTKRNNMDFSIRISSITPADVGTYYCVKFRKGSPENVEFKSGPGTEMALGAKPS
The assay can be described thus: SPR, Langmuir fit. In outline:
as §1

The target in assay [2] is T3, human SIRP-α v1 D1 domain (human, UniProt P78324 31-149).
T3 construct: also called human v1
T3 sequence (P78324 31-149 limits assumed): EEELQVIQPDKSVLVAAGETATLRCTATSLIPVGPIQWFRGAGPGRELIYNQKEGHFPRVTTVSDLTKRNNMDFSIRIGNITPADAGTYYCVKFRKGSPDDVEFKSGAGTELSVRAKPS
The assay can be described thus: SPR, Langmuir fit. In outline: as §1

In assay [3] the target is T4, human SIRP-α v2 D1 domain (human).
T4 construct: also called human v2
T4 sequence (chain, as listed by the source limits assumed): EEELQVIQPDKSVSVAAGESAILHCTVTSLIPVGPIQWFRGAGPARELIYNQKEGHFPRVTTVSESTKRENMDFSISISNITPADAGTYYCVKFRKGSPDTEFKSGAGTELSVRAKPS
Description: SPR, Langmuir fit. In outline:
as §1

Assay [4] has as its target T5, cynomolgus SIRP-α D1 domain (cyno1) (cynomolgus monkey, UniProt Q5TFQ8 30-148 (human entry), limits assumed).
T5 chain: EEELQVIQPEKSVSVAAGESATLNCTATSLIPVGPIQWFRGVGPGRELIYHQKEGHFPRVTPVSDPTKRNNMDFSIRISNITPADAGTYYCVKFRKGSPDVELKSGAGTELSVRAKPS
Description: SPR, Langmuir fit. Summed up:
as §1

Assay [5] concerns the target T6, cynomolgus SIRP-α D1 domain (cyno2) (cynomolgus monkey, UniProt Q5TFQ8 30-148 (human entry), limits assumed).
T6 chain: T5 chain with E19D, A27V, T28S, V42A, H51N, Q52L, P62A
The assay can be described thus: SPR, Langmuir fit. Summed up: as §1

The target of assay [6] is T7, mouse 129 SIRP-α D1 domain (mouse (129 strain), UniProt P97797 32-150).
T7 construct: also called m129
T7 chain: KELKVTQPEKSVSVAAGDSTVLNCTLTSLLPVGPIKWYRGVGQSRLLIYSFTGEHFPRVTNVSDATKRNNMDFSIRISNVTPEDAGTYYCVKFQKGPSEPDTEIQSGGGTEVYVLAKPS
The assay can be described thus: SPR, Langmuir fit. Summed up: as §1

Assay [7] addresses T8, NOD mouse SIRP-α D1 domain (mouse (NOD strain)).
T8 chain: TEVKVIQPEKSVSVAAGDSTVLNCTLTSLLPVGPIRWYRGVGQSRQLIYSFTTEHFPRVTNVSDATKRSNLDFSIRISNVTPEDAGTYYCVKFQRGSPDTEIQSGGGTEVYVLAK
The assay can be described thus: SPR, Langmuir fit. Summed up: as §1

Assay [8] addresses T9, C57BL/6 mouse SIRP-α D1 domain (mouse (C57BL/6 strain), UniProt P97797 32-148).
T9 sequence: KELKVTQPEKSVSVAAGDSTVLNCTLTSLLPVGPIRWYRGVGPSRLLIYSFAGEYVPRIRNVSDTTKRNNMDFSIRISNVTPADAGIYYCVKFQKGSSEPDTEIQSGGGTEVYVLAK
Description: SPR, Langmuir fit. In outline:
as §1

Another assay has as its target T10, human SIRPβ isoform 1 (human, UniProt O00241 30-148).
T10 construct: also called SIRPb; sirpb1
Description: SPR, Langmuir fit. In outline:
as §1

The target in another assay is T11, human SIRP-α v1 (human, UniProt P78324 31-149).
T11 construct: also called Human v1; Human V1
T11 sequence (P78324 31-149 limits assumed): as the sequence (P78324 31-149 limits assumed) above
Description: SPR. Summed up: (§2)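 Runs took place at 25° C in PBS pH 7.4 containing 0.01% Tween-20 on a ProteOn XPR36 biosensor, with purified antibodies either amine-coupled to a GLC chip or captured through biotinylated Protein A on an NLC chip. SIRP analytes went in by one-shot kinetic injection at nominal concentrations based on A280 absorbance. Apparent rate constants came from a global simple Langmuir fit of double-referenced data, and KD was calculated as kd/ka.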

Another assay deals with T12, human SIRP-α v2 (human).
T12 construct: also called Human v2; Human V2
The assay can be described thus: SPR. Summed up:
as §2

Where a chain is given by its changes, count along the chain named. Some results are limits rather than exact numbers.

T10 sequence (O00241 30-148 limits assumed): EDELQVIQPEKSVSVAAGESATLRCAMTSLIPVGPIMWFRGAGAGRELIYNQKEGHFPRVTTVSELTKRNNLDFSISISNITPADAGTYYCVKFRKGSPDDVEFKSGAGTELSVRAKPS

B1: S25 (scFv, V domains shown)
VH: DVQLVESGGGVVRPGESLRLSCEASGFTFSSNAMSWVRQAPGKGLEWVAGISSGSDTYYGDSVKGRLTISRDNSKNILYLQMNSLTAEDTAVYYCARETWNHLFDYWGLGTLVTVSS
VL: ALTQPASVSANPGETVEITCSGGSYSSYYYAWYQQKSPGSAPVTLIYSDDKRPSNIPSRFSGSASGSTATLTITGVRAEDEAVYFCGGYDQSSYTNPFGAGTTLTVL
notes: also called clone 25; scFv-Fc form of AB25
With B1, the koff in [1] worked out at 0.00014 s⁻¹; in the assay with human SIRPγ isoform 1, 0.000141 s⁻¹; in [2], 0.000112 s⁻¹; in assay [3] it was 0.000209 s⁻¹; in [4] it was 0.000219 s⁻¹; in [5], 0.000212 s⁻¹. The koff in assay [6] is 0.000133 s⁻¹; in assay [7], 0.000779 s⁻¹; in [8], 0.00029 s⁻¹; with human SIRPβ isoform 1, 0.000171 s⁻¹.

B2: S28 (scFv, V domains shown)
VH: B1 VH with E23A, T28S, S53A, G54S, S55G, G60S, D61G, V63M, L67F, I77T
VL: ALTQPASVSANPGETVKITCSGGSDSYYYGWHQQKSPGSAPVTVIYSDDQRPPDIPSRFSGSASGSTTTLTITGVRAEDEAVYYCGGYDYSTYTNTFGAGTTLTVL
notes: also called clone 28
For the molecule B2, the koff turned out to be 6.59e-05 s⁻¹ in assay [1]; 3.27e-05 s⁻¹ with human SIRPγ isoform 1; 2.11e-05 s⁻¹ in assay [2]; 1.47e-05 s⁻¹ in [3]; 0.000115 s⁻¹ in [4]; 0.000132 s⁻¹ in [5]. The koff is 0.000306 s⁻¹ in assay [6], 0.000616 s⁻¹ in [7], 0.00186 s⁻¹ in [8] and 6.29e-05 s⁻¹ in the assay with human SIRPβ isoform 1.

B3: antibody 73 (antibody, V domains shown)
VH: B1 VH with V37A
VL: B1 VL with E17K, S24I
notes: also called S73
With B3, the Kd in the assay with human SIRP-α v1 and in the assay with human SIRP-α v2 was under 1 pM in each case.

B4: S73 (scFv, V domains shown)
VH: B1 VH with V37A
VL: B1 VL with E17K, S24I
notes: also called clone 73
In the case of B4, the koff in [1] amounted to 5.28e-05 s⁻¹; with human SIRPγ isoform 1, 7.3e-05 s⁻¹; in assay [2] it was 1.9e-05 s⁻¹; in assay [3], 7.49e-05 s⁻¹; in assay [4], 0.000127 s⁻¹; in assay [5], 0.000119 s⁻¹. In addition, the koff in [6] came out at 0.000164 s⁻¹; in assay [7], 0.00148 s⁻¹; in [8] it was 0.000373 s⁻¹; with human SIRPβ isoform 1, 0.000108 s⁻¹.

B5: S3 (scFv, V domains shown)
VH: AVTLDESGGGLQTPGGALSLVCKASGFIFSDYGMNWVRQAPGKGLEFVAQITSGSRTYYGAAVKGRATISRDNRQSTVKLQLNNLRAEDTGIYFCARDFGSGVGSIDAWGNGTEVIVSS
VL: ALTQPASVSANLGGTVKITCSGSRGRYGWYQQRSPGSAPVTVIYRDNQRPSNIPSRFSSSTSGSTSTLTITGVQADDESVYFCGSYDGSIDIFGAGTTLTVL
notes: also called clone 3; scFv-Fc form of AB3
B5: the dissociation rate constant (koff) amounted to 0.000394 s⁻¹ in assay [1]; 0.000162 s⁻¹ with human SIRPγ isoform 1; 0.00041 s⁻¹ in [2]; 0.000276 s⁻¹ in assay [3]; 0.00218 s⁻¹ in [4]; 0.00174 s⁻¹ in assay [5]. Moreover, the koff in assay [6] is 0.000655 s⁻¹; in assay [7], 0.00119 s⁻¹; in assay [8], 0.00197 s⁻¹; in the assay with human SIRPβ isoform 1, 0.00192 s⁻¹.

B6: antibody 16 (antibody, V domains shown)
VH: DVQLVESGGGVVRPGESLRLSCAVSGFRFSSYAMSWVRQAPGKGLEWVSGISSGGDTYYVDSVKGRFTISRDNSKNTLYLQVNSLTAEDTAIYYCARETWNHLFDYWGLGTLVTVSS
VL: ALTQPASVSANLGETVKITCSGGDSSSHYYGWYQQKSPGSAPVTVIYSDDERPSDIPSRFSGSASGSTATLTITGVRVEDEAIYYCGAYDGSTYANTFGAGTTLTVL
notes: also called S16
As for B6, the Kd in the assay with human SIRP-α v1 and with human SIRP-α v2 was under 1 pM each time.

B7: S22 (scFv, V domains shown)
VH: DVQLVESGGGVVRPGESLRLSCAASGFTFSSYAMSWVRQAPGKGLEWLAGISAGGSDTYYIDSVKGRFTISRRQFQEQSLSPNEPALTAEDTAVYYCARETWNHLFDYWGLGTLVTVSS
VL: ALTQPASVSANPGETVKITCSGGDYYSTYYGWYQQKSPGSAPVTVIHSDDKRPSDIPSRFSGSASGSAATLTIAGVRVEDEAVYFCGAYDGRTYINTFGAGTTLTVL
notes: also called clone 22
On to B7, for which the koff in assay [1] came out at 0.000135 s⁻¹; with human SIRPγ isoform 1, 0.000108 s⁻¹; in assay [2], 0.000121 s⁻¹; in assay [3], 0.000146 s⁻¹; in [4], 0.000177 s⁻¹; in assay [5], 0.000177 s⁻¹. Moreover, the koff came to 0.000153 s⁻¹ in [6], 0.000583 s⁻¹ in assay [7], 0.000736 s⁻¹ in assay [8] and 0.000138 s⁻¹ with human SIRPβ isoform 1.

B8: antibody 202 (antibody, V domains shown)
VH: DVQLVESGGGVVRPGESLRLSCAASGFTFSSYAMSWVRQAPGKGLEWLAGISAGGSDTYYIDSVKGRFTISRDNSKNSLYLQMNSLTAEDTAVYYCARETWNHLFDYWGLGTLVTVSS
VL: B7 VL with D24G, K36R, A74T, F85Y, G87A, A88G, I95L
notes: also called S202
In the case of B8, the Kd with human SIRP-α v1 and in the assay with human SIRP-α v2 was under 1 pM throughout.

B9: S201 (scFv, V domains shown)
VH: DVQLVESGGAVVRPGETLRLSCTASGFTFSSYAMSWVRQAPGKGLEWVSGISASGSDTYYADSVKGRSTISRDNSKNTLYLRMSSLTAEDTAVYYCARETWNHLFDYWGLGTLVTVSS
VL: ALTQPASVSANPGETVKITCSGGGTSSYYGWYQQKSPGSAPVTLIHSDDKRPSDIPSRFSGSASGSTATLTITGVQVEDEAVYYCGGYDYTTYVNTFGAGTTLTVL
Consider B9, for which the koff in [1] turned out to be 8.32e-05 s⁻¹; with human SIRPγ isoform 1, 0.000185 s⁻¹; in [2], 3.46e-05 s⁻¹; in assay [3] it was 4.27e-05 s⁻¹; in [4], 0.000636 s⁻¹; in [5], 0.000522 s⁻¹. Besides, the koff amounted to 0.000818 s⁻¹ in [6], 0.00215 s⁻¹ in [7], 0.00111 s⁻¹ in assay [8] and 0.0041 s⁻¹ in the assay with human SIRPβ isoform 1.

B10: antibody 201 (antibody, V domains shown)
VH: B9 VH
VL: B9 VL
notes: also called S201
Regarding B10, the Kd in the assay with human SIRP-α v1 is under 1 pM; with human SIRP-α v2, 4.87 pM.

B11: S206 (scFv, V domains shown)
VH: B9 VH with V116L
VL: B9 VL with V77A
For the molecule B11, the off-rate constant (koff) in [1] came out at 8.22e-05 s⁻¹; with human SIRPγ isoform 1 it was 0.000192 s⁻¹; in assay [2], 3.5e-05 s⁻¹; in assay [3] it was 3.6e-05 s⁻¹; in assay [4] it was 0.000624 s⁻¹; in assay [5] it was 0.000518 s⁻¹. Further, the koff in [6] worked out at 0.000901 s⁻¹; in assay [7] it was 0.00223 s⁻¹; in assay [8], 0.00157 s⁻¹; in the assay with human SIRPβ isoform 1, 0.00437 s⁻¹.
